T1: human IL-2Rβ (human, UniProt P14784 27-240, limits assumed)
T1 construct: also called hIL-2Rβ; IL-2 receptor beta
T1 sequence (looked up): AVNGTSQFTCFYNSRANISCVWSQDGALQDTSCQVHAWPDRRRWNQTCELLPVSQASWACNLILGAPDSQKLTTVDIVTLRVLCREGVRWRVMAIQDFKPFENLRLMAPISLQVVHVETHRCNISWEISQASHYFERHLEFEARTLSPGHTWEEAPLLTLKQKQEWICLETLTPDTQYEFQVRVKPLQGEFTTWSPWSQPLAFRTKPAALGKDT

T2: mouse PD-1 on doxycycline-induced 32D[pRF770+pRF791] cells (mouse, UniProt Q02242 25-288)
T2 sequence (looked up): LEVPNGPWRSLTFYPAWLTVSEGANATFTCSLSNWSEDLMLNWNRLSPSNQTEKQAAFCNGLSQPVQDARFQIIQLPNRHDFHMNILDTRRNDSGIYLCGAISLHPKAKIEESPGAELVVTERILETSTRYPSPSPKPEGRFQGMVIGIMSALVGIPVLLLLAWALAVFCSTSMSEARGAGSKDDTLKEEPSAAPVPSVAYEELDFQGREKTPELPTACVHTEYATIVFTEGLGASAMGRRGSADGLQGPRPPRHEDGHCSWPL

T3: IL-15 signaling receptor on 32D[pRF770+pRF791] cells (human CD122 plus mouse CD132) (human; mouse, UniProt P14784 27-551; P34902 23-369)
T3 sequence (looked up) 1: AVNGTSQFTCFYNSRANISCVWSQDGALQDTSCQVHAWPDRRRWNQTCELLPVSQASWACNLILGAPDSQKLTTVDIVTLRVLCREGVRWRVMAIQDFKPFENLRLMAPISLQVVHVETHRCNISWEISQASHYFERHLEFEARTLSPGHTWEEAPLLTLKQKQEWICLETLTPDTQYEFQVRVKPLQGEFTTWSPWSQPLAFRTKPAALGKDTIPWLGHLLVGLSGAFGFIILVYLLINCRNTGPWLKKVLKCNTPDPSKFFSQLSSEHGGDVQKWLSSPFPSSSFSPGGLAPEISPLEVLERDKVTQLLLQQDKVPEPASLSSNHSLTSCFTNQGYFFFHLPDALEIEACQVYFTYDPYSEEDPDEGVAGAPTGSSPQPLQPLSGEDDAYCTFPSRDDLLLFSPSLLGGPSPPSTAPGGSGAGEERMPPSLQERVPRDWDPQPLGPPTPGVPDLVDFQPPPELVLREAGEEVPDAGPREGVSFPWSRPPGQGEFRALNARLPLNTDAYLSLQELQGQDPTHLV
T3 sequence (looked up) 2: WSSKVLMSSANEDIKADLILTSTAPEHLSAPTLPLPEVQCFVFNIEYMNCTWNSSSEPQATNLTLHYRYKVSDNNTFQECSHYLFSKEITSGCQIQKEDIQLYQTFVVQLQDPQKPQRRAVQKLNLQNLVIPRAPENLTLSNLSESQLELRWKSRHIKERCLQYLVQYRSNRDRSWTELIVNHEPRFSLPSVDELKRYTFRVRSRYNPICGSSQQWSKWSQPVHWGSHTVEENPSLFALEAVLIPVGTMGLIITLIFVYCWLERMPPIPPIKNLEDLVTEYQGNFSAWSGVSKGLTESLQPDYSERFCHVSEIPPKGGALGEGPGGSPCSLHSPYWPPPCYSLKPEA


How the values were obtained:
[1] = target: T1, human IL-2Rβ; experiment: SPR, fusion captured
Method: Anti-human Fc sensor chips were prepared at 25° C. with a running buffer of 10 mM HEPES, 150 mM NaCl, 0.05% (v/v) Tween-20, pH 7.4. All surfaces of a Biacore CM4 sensor chip were activated with a 1:1 (v/v) mixture of 400 mM EDC and 100 mM NHS for 7 minutes, at a flow rate of 10 μL/min. An anti-human Fc reagent (Goat anti-human IgG Fc-γ specific, SouthernBiotech, Birmingham, Ala., Catalog #2014-01) was diluted to 50 μg/mL in 10 mM sodium acetate (pH 4.5) and injected on all flow cells for 7 minutes at 20 μL/min. All flow cells were blocked with 100 mM ethylenediamine in 200 mM Borate buffer pH 8.5 for 7 minutes at 10 μL/min.
All protein interaction experiments were performed at 37° C. using a running buffer of 10 mM HEPES, 150 mM NaCl, 0.05% (v/v) Tween-20, pH 7.4, 1 mg/mL BSA. Anti-PD-1-hIL-15 fusion proteins were captured at 10 μg/mL at a flow rate of 10 μL/min for 2 minutes. Different fusion proteins were captured in flow cells 2, 3 and 4. No protein was captured onto flow cell 1 which was used as a reference surface. […] After each analyte injection, dissociation was monitored for 5 minutes followed by regeneration of all flow cells with three 60-second injections of 75 mM phosphoric acid. […] For kinetic analysis, the double-referenced sensorgrams were fit globally to a simple 1:1 Langmuir with mass transport binding model using Biacore T200 Evaluation Software version 2.0. For steady-state affinity analysis, the double-referenced equilibrium binding responses were fit with a 1:1 Langmuir steady-state model using Biacore T200 Evaluation Software version 2.0.

[2] = target: T2, mouse PD-1 on doxycycline-induced …; experiment: cell-based or functional assay
[3] = target: T3, IL-15 signaling receptor on …; experiment: cell-based or functional assay
[4] = target: T4, human IL-15Rα (human, UniProt Q13261 31-205, limits assumed); experiment: SPR 37C, fusion captured by anti-human Fc
T4 construct: also called hIL-15Rα; IL-15 receptor alpha
Procedure, shortened: (§1)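 Anti-PD-1–hIL-15 fusions captured at 10 μg/mL on an anti-human Fc surface, receptor injected at 37 °C in HEPES-buffered saline with 0.05% Tween-20 and 1 mg/mL BSA, pH 7.4; 5 min dissociation.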

[5] = target: T1, human IL-2Rβ; experiment: SPR 37C, fusion captured by anti-human Fc
Procedure, shortened: as §1

T4 sequence (Q13261 31-205 limits assumed): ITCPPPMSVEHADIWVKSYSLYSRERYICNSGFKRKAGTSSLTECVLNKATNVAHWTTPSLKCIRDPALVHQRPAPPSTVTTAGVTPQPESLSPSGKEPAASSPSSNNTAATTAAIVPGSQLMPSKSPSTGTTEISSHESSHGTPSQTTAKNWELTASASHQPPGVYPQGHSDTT

Kd [1] | Fold change = EC50 (PD-1(low))/EC50 (PD-1+) [2] | pSTAT5 EC50 on PD-1+ 32D reporter cells [2] | pSTAT5 EC50 on PD-1(low) 32D reporter cells [3] | binding result [4] | binding result [5] | Binder
> 3000 nM | 715 fold | 0.137 nM | 98 nM | no binding (tested: 3000 nM) |  | xmPD-1-hIL15 V49R/E46G/E64Q/D30N (other, not restated for this mutant; also called xmPD-IL15 V49R/E46G/E64Q/D30N) heavy 1: HHHHHHHHGGGGSGSGGEVQLVESGGGLVKPGGSLELSCAASGFTFSSYWMSWVRQAPEKGLEWVAAISPSGGSTYYADSVKGRFTISRDNAKNTLFLQMTSLRSEDTAMYYCAKESWGAYYDLWGQGTTVTVSSASTKGPSVFPLAPCSRSTSESTAALGCLVKDYFPEPVTVSWNSGALTSGVHTFPAVLQSSGLYSLSSVVTVPSSNFGTQTYTCNVDHKPSNTKVDKTVERKCRVRCPRCPAPPVAGPSVFLFPPKPKDTLMISRTPEVTCVVVAVSHEDPEVQFNWYVDGVEVHNAKTKPREEQFNSTFRVVSVLTVVHQDWLNGKEYKCKVSNKGLPSSIEKTISKTKGQPREPQVYTLPPSREEMTKNQVSLTCLVKGFYPSDIAVEWESNGQPENNYKTTPPMLDSDGSFFLYSRLTVDKSRWQQGNVFSCSVMHEALHNHYTQKSLSLSPGK heavy 2: EVQLVESGGGLVKPGGSLELSCAASGFTFSSYWMSWVRQAPEKGLEWVAAISPSGGSTYYADSVKGRFTISRDNAKNTLFLQMTSLRSEDTAMYYCAKESWGAYYDLWGQGTTVTVSSASTKGPSVFPLAPCSRSTSESTAALGCLVKDYFPEPVTVSWNSGALTSGVHTFPAVLQSSGLYSLSSVVTVPSSNFGTQTYTCNVDHKPSNTKVDKTVERKCEVECPECPAPPVAGPSVFLFPPKPKDTLMISRTPEVTCVVVAVSHEDPEVQFNWYVDGVEVHNAKTKPREEQFNSTFRVVSVLTVVHQDWLNGKEYKCKVSNKGLPSSIEKTISKTKGQPREPQVYTLPPSREEMTKNQVSLTCEVKGFYPSDIAVEWESNGQPENNYKTTPPMLDSDGSFFLYSKLTVDKSRWQQGNVFSCSVMHEALHNHYTQKSLSLSPGSGGGGGTSATATPGANWVNVISDLKKIEDLIQSMHIDATLYTESNVHPSCKVTAMKCFLLGLQRISLESGDASIHDTVQNLIILANNSLSSNGNVTESGCKECEELEEKNIKEFLQSFVHIVQMFINT light: DIVMTQSPSSLSVSAGDKVTMSCRASQGISSWLAWYQQKPWQPPKLLIYKASTLESGVPDRFTGSGSGTDFTLTISSVQAEDLAVYYCQQSYSTPWTFGGGTKLEIKGTVAAPSVFIFPPSDEQLKSGTASVVCLLNNFYPREAKVQWKVDNALQSGNSQESVTEQDSKDSTYSLSSTLTLSKADYEKHKVYACEVTHQGLSSPVTKSFNRGEC
 |  |  |  | no binding (tested: 3000 nM) | no binding (tested: 3000 nM) | xmPD-1-hIL15 V49R/E46G/E64Q/D30N/N4K/M109A (other, not restated for this mutant; also called xmPD1-hIL15_V49R-E46G-E64Q-N4K-D30N-M109A; xmPD-1-hIL15 VS49R/E46G/E64Q/D30N/N4K/M109A) heavy 1: HHHHHHHHGGGGSGSGGEVQLVESGGGLVKPGGSLELSCAASGFTFSSYWMSWVRQAPEKGLEWVAAISPSGGSTYYADSVKGRFTISRDNAKNTLFLQMTSLRSEDTAMYYCAKESWGAYYDLWGQGTTVTVSSASTKGPSVFPLAPCSRSTSESTAALGCLVKDYFPEPVTVSWNSGALTSGVHTFPAVLQSSGLYSLSSVVTVPSSNFGTQTYTCNVDHKPSNTKVDKTVERKCRVRCPRCPAPPVAGPSVFLFPPKPKDTLMISRTPEVTCVVVAVSHEDPEVQFNWYVDGVEVHNAKTKPREEQFNSTFRVVSVLTVVHQDWLNGKEYKCKVSNKGLPSSIEKTISKTKGQPREPQVYTLPPSREEMTKNQVSLTCLVKGFYPSDIAVEWESNGQPENNYKTTPPMLDSDGSFFLYSRLTVDKSRWQQGNVFSCSVMHEALHNHYTQKSLSLSPGK heavy 2: EVQLVESGGGLVKPGGSLELSCAASGFTFSSYWMSWVRQAPEKGLEWVAAISPSGGSTYYADSVKGRFTISRDNAKNTLFLQMTSLRSEDTAMYYCAKESWGAYYDLWGQGTTVTVSSASTKGPSVFPLAPCSRSTSESTAALGCLVKDYFPEPVTVSWNSGALTSGVHTFPAVLQSSGLYSLSSVVTVPSSNFGTQTYTCNVDHKPSNTKVDKTVERKCEVECPECPAPPVAGPSVFLFPPKPKDTLMISRTPEVTCVVVAVSHEDPEVQFNWYVDGVEVHNAKTKPREEQFNSTFRVVSVLTVVHQDWLNGKEYKCKVSNKGLPSSIEKTISKTKGQPREPQVYTLPPSREEMTKNQVSLTCEVKGFYPSDIAVEWESNGQPENNYKTTPPMLDSDGSFFLYSKLTVDKSRWQQGNVFSCSVMHEALHNHYTQKSLSLSPGSGGGGGTSATATPGANWVKVISDLKKIEDLIQSMHIDATLYTESNVHPSCKVTAMKCFLLGLQRISLESGDASIHDTVQNLIILANNSLSSNGNVTESGCKECEELEEKNIKEFLQSFVHIVQAFINT light: DIVMTQSPSSLSVSAGDKVTMSCRASQGISSWLAWYQQKPWQPPKLLIYKASTLESGVPDRFTGSGSGTDFTLTISSVQAEDLAVYYCQQSYSTPWTFGGGTKLEIKGTVAAPSVFIFPPSDEQLKSGTASVVCLLNNFYPREAKVQWKVDNALQSGNSQESVTEQDSKDSTYSLSSTLTLSKADYEKHKVYACEVTHQGLSSPVTKSFNRGEC
 |  |  |  | no binding (tested: 3000 nM) | no binding (tested: 3000 nM) | xmPD-1-hIL15 V49R/E46G/E64Q/D30N/N4K (other, not restated for this mutant; also called xmPD1-hIL15_V49R-E46G-N4K-E64Q-D30N) heavy 1: HHHHHHHHGGGGSGSGGEVQLVESGGGLVKPGGSLELSCAASGFTFSSYWMSWVRQAPEKGLEWVAAISPSGGSTYYADSVKGRFTISRDNAKNTLFLQMTSLRSEDTAMYYCAKESWGAYYDLWGQGTTVTVSSASTKGPSVFPLAPCSRSTSESTAALGCLVKDYFPEPVTVSWNSGALTSGVHTFPAVLQSSGLYSLSSVVTVPSSNFGTQTYTCNVDHKPSNTKVDKTVERKCRVRCPRCPAPPVAGPSVFLFPPKPKDTLMISRTPEVTCVVVAVSHEDPEVQFNWYVDGVEVHNAKTKPREEQFNSTFRVVSVLTVVHQDWLNGKEYKCKVSNKGLPSSIEKTISKTKGQPREPQVYTLPPSREEMTKNQVSLTCLVKGFYPSDIAVEWESNGQPENNYKTTPPMLDSDGSFFLYSRLTVDKSRWQQGNVFSCSVMHEALHNHYTQKSLSLSPGK heavy 2: EVQLVESGGGLVKPGGSLELSCAASGFTFSSYWMSWVRQAPEKGLEWVAAISPSGGSTYYADSVKGRFTISRDNAKNTLFLQMTSLRSEDTAMYYCAKESWGAYYDLWGQGTTVTVSSASTKGPSVFPLAPCSRSTSESTAALGCLVKDYFPEPVTVSWNSGALTSGVHTFPAVLQSSGLYSLSSVVTVPSSNFGTQTYTCNVDHKPSNTKVDKTVERKCEVECPECPAPPVAGPSVFLFPPKPKDTLMISRTPEVTCVVVAVSHEDPEVQFNWYVDGVEVHNAKTKPREEQFNSTFRVVSVLTVVHQDWLNGKEYKCKVSNKGLPSSIEKTISKTKGQPREPQVYTLPPSREEMTKNQVSLTCEVKGFYPSDIAVEWESNGQPENNYKTTPPMLDSDGSFFLYSKLTVDKSRWQQGNVFSCSVMHEALHNHYTQKSLSLSPGSGGGGGTSATATPGANWVKVISDLKKIEDLIQSMHIDATLYTESNVHPSCKVTAMKCFLLGLQRISLESGDASIHDTVQNLIILANNSLSSNGNVTESGCKECEELEEKNIKEFLQSFVHIVQMFINT light: DIVMTQSPSSLSVSAGDKVTMSCRASQGISSWLAWYQQKPWQPPKLLIYKASTLESGVPDRFTGSGSGTDFTLTISSVQAEDLAVYYCQQSYSTPWTFGGGTKLEIKGTVAAPSVFIFPPSDEQLKSGTASVVCLLNNFYPREAKVQWKVDNALQSGNSQESVTEQDSKDSTYSLSSTLTLSKADYEKHKVYACEVTHQGLSSPVTKSFNRGEC

Reference: patent publication US20210324028A1 (Pfizer, published 2021)
